Values of other authors as cited in article PMC3361719.

Biological target: p67phox SH3 (Homo sapiens) (UniProt P19878)
UniProt P19878, sequence (P19878 457-516): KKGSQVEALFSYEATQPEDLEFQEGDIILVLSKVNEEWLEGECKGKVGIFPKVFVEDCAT

Q: Which Kd does the source give for “p47phox PRR and 368-390 (from UniProt P14598)” here?
A: 20 nM
